In patent US20050058639A1 (AstraZeneca / MedImmune, published 2005):

T1: recombinant human MCP-2 (human, UniProt P80075 24-99)
T1 construct: also called rhMCP-2
T1 sequence (looked up): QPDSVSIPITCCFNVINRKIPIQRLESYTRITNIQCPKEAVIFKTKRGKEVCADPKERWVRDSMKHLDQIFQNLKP

T2: human GRO/MGSA (human, UniProt P09341 35-107)
T2 construct: also called hGRO/MGSA; GRO-alpha
T2 sequence (looked up): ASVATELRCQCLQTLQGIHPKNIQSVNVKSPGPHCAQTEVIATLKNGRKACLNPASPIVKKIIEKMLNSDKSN

T3: human MIP-1-alpha (human, UniProt P10147 24-92, limits assumed)
T3 construct: also called hMIP-1-alpha
T3 sequence (looked up): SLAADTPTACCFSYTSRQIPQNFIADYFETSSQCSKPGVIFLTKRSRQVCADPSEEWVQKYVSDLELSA

T4: human RANTES (human, UniProt P13501 24-91)
T4 construct: also called hRANTES
T4 sequence (looked up): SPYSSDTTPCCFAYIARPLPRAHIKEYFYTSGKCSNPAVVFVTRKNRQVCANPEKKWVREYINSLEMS


How the values were obtained:
[1] = molecular target: T5, human monocyte chemo-attractant protein-1 (MCP-1) (human, UniProt P13500 24-99); experiment: ELISA, coated antigen
T5 construct: 76-residue recombinant protein from E. coli, bought (PeproTech); also called hMCP-1(MCAF); human MCP-1
Experimental: (§1) Determining cross-reactivity of anti-MCP-1 antibodies with other chemokines. ELISA plates (Fisher Cat. No. 12-565-136) were coated with 50 μl/well of MCP-1, MCP-2, MCP-3, MCP-4, RANTES, GRO-alpha, MIP-1 alpha, eotaxin, rat MCP-1 and mouse JE (2 μg/ml) in coating buffer (0.1 M carbonate buffer, pH 9.6, NaHCO₃ 8.4 g/L, then incubated at 4° C. overnight. After incubation, the plates were washed with washing buffer (0.05% Tween 20 in PBS) three times. 200 μL/well blocking buffer (0.5% BSA, 0.1% Tween 20, 0.01% Thimerosal in 1×PBS) were added and the plates incubated at room temperature for 1 hour. After incubation, the plates were washed with washing buffer three times. 50 μL/well of hybridoma supernatants, and positive and negative controls (positive control was anti-MCP-1 antibody purchased from R&D Sciences, and negative control was an antibody to Keyhole Limpet Hemocyanin produced at Abgenix) were added and the plates incubated at room temperature for 2 hours. After incubation, the plates were washed three times with washing buffer. […] After incubation, the plates were washed three times with washing buffer and 100 μL/well of TMB (BioFX Lab. Cat. #TMSK-0 100-01) was added and the plates allowed to develop for about 10 minutes.

[2] = molecular target: T6, recombinant mouse JE/MCP-1 (mouse, UniProt P10148 24-148); experiment: ELISA, coated antigen
T6 construct: also called rmJE/MCP-1
Experimental: as §1

[3] = molecular target: rat MCP-1 (rat, UniProt P14844 24-148); experiment: ELISA, coated antigen
Experimental: as §1

[4] = molecular target: T1, recombinant human MCP-2; experiment: ELISA, coated antigen
Experimental: as §1

[5] = molecular target: T7, recombinant human MCP-3 (human, UniProt P80098 24-99); experiment: ELISA, coated antigen
T7 construct: also called rhMCP-3
Experimental: as §1

[6] = molecular target: T8, recombinant human MCP-4 (human, UniProt Q99616 24-98, limits assumed); experiment: ELISA, coated antigen
T8 construct: also called rhMCP-4
Experimental: as §1

[7] = molecular target: T2, human GRO/MGSA; experiment: ELISA, coated antigen
Experimental: as §1

[8] = molecular target: T3, human MIP-1-alpha; experiment: ELISA, coated antigen
Experimental: as §1

[9] = molecular target: T4, human RANTES; experiment: ELISA, coated antigen
Experimental: as §1

[10] = molecular target: T9, human eotaxin (human, UniProt P51671 24-97); experiment: ELISA, coated antigen
T9 construct: also called hEotaxin
Experimental: as §1

[11] = molecular target: T5, human monocyte chemo-attractant …; experiment: cell-based or functional assay
[12] = molecular target: T5, human monocyte chemo-attractant …; experiment: ELISA, hybridoma supernatant on coated MCP-1
Experimental: Selection of candidate antibodies for ELISA. After 14 days of culture, hybridoma supernatants were screened for MCP-1-specific monoclonal antibodies. The ELISA plates (Fisher, Cat. No. 12-565-136) were coated with 50 μl/well of MCP-1 (2 μg/mL) in Coating Buffer (0.1 M Carbonate Buffer, pH 9.6, NaHCO₃8.4 g/L), then incubated at 4° C. overnight. After incubation, the plates were washed with Washing Buffer (0.05% Tween 20 in PBS) three times. 200 μl/well Blocking Buffer (0.5% BSA, 0.1% Tween 20, 0.01% Thimerosal in 1× PBS) were added and the plates incubated at room temperature for 1 hour. After incubation, the plates were washed with Washing Buffer three times. 50 μL/well of hybridoma supernatants, and positive and negative controls were added and the plates incubated at room temperature for 2 hours.
The positive control used throughout was XMG2 MCP-1 Group 1, footpad N160-7 and the negative control was XMG2 KLH Group 1, footpad L627-6. After incubation, the plates were washed three times with Washing Buffer. […] In the secondary screen, three sets of samples (positives in first screening) were screened, one set for hIgG detection, one set for hKappa detection, and one set for hlambda detection. After incubation, the plates were washed three times with Washing Buffer. 100 μL/well of TMB (BioFX Lab. Cat. #TMSK-0100-01) were added and the plates allowed to develop for about 10 minutes (until negative control wells barely started to show color), then 50 μL/well stop solution (TMB Stop Solution (BioFX Lab. Cat. #STPR-0100-01) were added and the plates read on an ELISA plate reader at wavelength 450 nm. The OD readings from the positive wells are presented in Table 9.

T6 sequence (P10148 24-148 limits assumed): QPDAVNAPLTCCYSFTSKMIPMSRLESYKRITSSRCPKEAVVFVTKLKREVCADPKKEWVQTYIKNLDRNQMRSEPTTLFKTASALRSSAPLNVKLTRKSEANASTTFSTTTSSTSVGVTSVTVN
T9 sequence (P51671 24-97 limits assumed): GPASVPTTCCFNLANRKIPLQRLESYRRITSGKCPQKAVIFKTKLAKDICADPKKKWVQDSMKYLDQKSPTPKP
T5 sequence (P13500 24-99): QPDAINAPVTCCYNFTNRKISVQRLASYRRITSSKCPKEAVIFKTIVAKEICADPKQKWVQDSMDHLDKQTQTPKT
rat MCP-1, sequence (P14844 24-148 limits assumed): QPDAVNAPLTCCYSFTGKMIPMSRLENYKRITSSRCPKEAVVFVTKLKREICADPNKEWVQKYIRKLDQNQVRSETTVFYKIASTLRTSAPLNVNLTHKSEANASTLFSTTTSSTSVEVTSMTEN
T7 sequence (P80098 24-99 limits assumed): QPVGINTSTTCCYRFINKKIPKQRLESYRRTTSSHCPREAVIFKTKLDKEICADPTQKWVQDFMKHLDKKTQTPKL
T8 sequence (Q99616 24-98 limits assumed): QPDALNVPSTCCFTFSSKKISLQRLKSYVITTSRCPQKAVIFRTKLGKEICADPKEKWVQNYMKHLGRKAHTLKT

Row | Binder | ELISA OD [1] [OD450] | ELISA OD [2] [OD450] | ELISA OD [3] [OD450] | ELISA OD [4] [OD450] | ELISA OD [5] [OD450] | ELISA OD [6] [OD450] | ELISA OD [7] [OD450] | ELISA OD [8] [OD450] | ELISA OD [9] [OD450] | ELISA OD [10] [OD450] | IC50 Ca++ Flux [11] [µg/mL] | IC50 Chemotaxis [11] [µg/mL] | ELISA OD-MCP-1 [12] [OD450]
1 | anti-MCP-1 mAb 3.14.1 (antibody, V domains shown) VH: EQSGPGLVKPSQTLSLTCAISGDSVSSNSAAWNWIRQSPSRGLEWLGRTYYRSKWYSDHAVSVRSRITIYPDTSKNQFSLQLNSVTPEDTAVYYCARDRISGTYVGMDVWGQGTTVTVSS VL: not shown | 0.549 | 0.044 | 0.046 | 0.045 | 0.05 | 0.045 | 0.046 | 0.046 | 0.045 | 0.043 | 1.3 | 1.4 | 4
2 | anti-MCP-1 mAb 1.14.1 (antibody, V domains shown) VH: QVQAEQSGPGLVKPSQTLSLTCAISGDSVSSYSAAWNWIRQSPSRGLEWLGRTYYRSKWYSDHAVSVRSRITIYPDTSKNQFSLQLNSVTPEDTAVYYCARDRISGTYVGMDVWGQGTTVTVSS VL: not shown | 1.13 | 0.042 | 0.062 | 0.042 | 0.046 | 0.044 | 0.046 | 0.046 | 0.046 | 0.042 | 0.41 | 0.58 | 2.06
3 | anti-MCP-1 mAb 1.18.1 (antibody, human IgG2, kappa, V domains shown) VH: QVQLVQSGAEVKKPGASVKVSCKVSGYTLTELSMHWVRQAPGKGLEWMGGFDPEDGETIYAQKFQGRVTMTEDTSTDTVYMELSSLRSEDTAMYYCATREFWTGYFDHWGQGTLVTVSS VL: not shown | 1.23 | 0.044 | 0.058 | 0.04 | 0.045 | 0.045 | 0.049 | 0.043 | 0.04 | 0.043 | 0.18 | 0.29 | 0.998
4 | anti-MCP-1 mAb 4.5.1 (antibody, V domains shown) VH: QVQLVQSGAEVKKPGASVKVSCKVSGYTLTELSMHWVRQAPGKGLEWMGGFDPEDGETIYAQKFQGRVTMTEDTSTDTAYMELSSLRSEDTAVYYCATDDFWSGYFDYWGQGTLVTVSS VL: not shown | 0.957 | 0.049 | 0.055 | 0.042 | 0.046 | 0.046 | 0.045 | 0.046 | 0.049 | 0.041 | 0.27 | 0.75 | 3.38
5 | anti-MCP-1 mAb 1.2.1 (antibody, V domains shown) VH: QVQLVQSGAEVKKPGASVKVSCKVSGYTFTELSMHWVRQAPGKGLEWMGGFDPEDGETSYAQKFRGRVTMTEDTSTDTAHMELSSLRSEDTAVYYCATNDFWSGYFDYWGQGTLVTVSS VL: DIQMTQSPSSVSASVGDRVTITCRASQGIDIYLAWYQQKPGKAPKLLINAASSLQNGVPSRFGGSGSGTDFTLTISGLQPEDFATYYCQLTYFFPWTFGQGTKVEIKR | 1.16 | 0.041 | 0.044 | 0.056 | 0.048 | 0.055 | 0.044 | 0.04 | 0.04 | 0.044 | 0.18 | 0.24 | 3.47
6 | anti-MCP-1 mAb 3.4.1 (antibody, V domains shown) VH: QVQLVQSGAEVKKPGASVKVSCKVSGYTLTELSMHWVRQAPGKGLEWMGGFDPEDGETMYAQKFQGRVTMTEDTSTDTAYMELSSLRSEDTAVYYCATDDFWSGYFDYWGQGTLVTVSS VL: DIVMTQSPDSLAVSLDERATINCKSSQSVLYSPNQKNYLVWYQQKPGQPPKLLLYWASIRESGVPDRFSGSGSGTDFTLTISSLQAEDVAVYYCQQSYFTPWTFGQGTKVEIKR | 1.15 | 0.044 | 0.053 | 0.042 | 0.05 | 0.047 | 0.065 | 0.055 | 0.046 | 0.048 | 0.24 | 0.51 | 3.86
7 | anti-MCP-1 mAb 3.16.1 (antibody, V domains shown) VH: QVQLVQSGAEVKKPGASVKVSCKVSGYTLTDLSMHWVRQAPGKGLEWMGGFDPEDGETIYAQKFQGRVTMTEDTSSDTAYMELSSLRSEDTAVYYCATHEFWSGYFDYWGQGTLVTVSS VL: DIVMTQSPDSLAVSLGERATINCKSSQSVLFSSNNKSYLTWYQQKPGQPPKLLIFWASIRESGVPDRISGSGSGTDLTLTISSLQAEDAAVYYCQQYYSSPWTFGQGTKVEIKR | 0.633 | 0.042 | 0.046 | 0.049 | 0.043 | 0.043 | 0.043 | 0.043 | 0.042 | 0.043 | 0.16 | 0.4 | 3.92
8 | anti-MCP-1 mAb 3.10.1 (antibody, V domains shown) VH: QVQLVQSGAEVKKPGASVKVSCKVSGYTLTELSMHWVRQAPGKGLEWMGGFDPEDGETIYAQKFQGRVMMTEDTSTDTAFMDLSSLRSEDTAVYYCATDDMLTPHYLYFGMDVWGQGTTVTVSS VL: DIQMTQSPSSLSASVGDRVTITCRASQGIRNDLGWYQQKPGKAPKRLIYATSSLQSGVPSRFSGSGSGTEFTLTISSLQPEDFATYYCLQHNTYPFTFGPGTKVDIKR | 0.71 | 0.054 | 0.045 | 0.845 | 0.167 | 0.042 | 0.042 | 0.043 | 0.04 | 0.306 | 0.3 | 0.25 | 3.63
9 | anti-MCP-1 mAb 3.15.1 (antibody, human IgG4, kappa, V domains shown) VH: QVQLVQSGAEVKKPGASVQVSCKVSGDTLTELSMHWVRQAPGKGLEWMGGFDPEDGETIYARKFQGRVTMTEDTSTDTVYMELSSLRSEDTAVYFCATDSRGYSGYFDNWGQGTLVTVSS VL: not shown | 0.948 | 0.041 | 0.05 | 0.043 | 0.046 | 0.051 | 0.044 | 0.045 | 0.049 | 0.045 | 0.12 | 0.89 | 4
